The supplement of paper PMC9112550, “Optimization of the antimicrobial peptide Bac7 by deep mutational scanning” (BMC Biology, 2022)

System: Escherichia coli TOP10
Test: shrunken log2 fold change of peptide-encoding DNA abundance (4.5 h post-induction vs induction); higher = less antimicrobial activity (less host growth inhibition)
Conditions: time post-induction: 4.5 h; library: site-saturation at positions 5, 18, 19, 20
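Further: peptides expressed intracellularly from a pBAD plasmid library in pooled LB shake-flask culture, induced with 0.3% L-arabinose, DNA abundance read by NGS, three biological replicates, DESeq2 with apeglm shrinkage.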

| Sequence | shrunken log2 fold change |
| --- | --- |
| RRIRQRPPRLPRPRPRPLIHPRP | -0.708 |
| RRIRWRPPRLPRPRPRPTNMPRP | -0.154 |
| RRIRYRPPRLPRPRPRPMFYPRP | -1.04 |
| RRIRWRPPRLPRPRPRPYQCPRP | -0.325 |
| RRIRQRPPRLPRPRPRPTEHPRP | -0.00172 |
| RRIRGRPPRLPRPRPRPYAFPRP | 0.413 |
| RRIRVRPPRLPRPRPRPYYSPRP | -0.235 |
| RRIRRRPPRLPRPRPRPQKPPRP | -0.138 |
| RRIRTRPPRLPRPRPRPMYDPRP | -0.161 |
| RRIRWRPPRLPRPRPRPYDHPRP | -0.207 |
| RRIRFRPPRLPRPRPRPWFYPRP | -0.587 |
| RRIRPRPPRLPRPRPRPWISPRP | -0.161 |
| RRIRNRPPRLPRPRPRPQVEPRP | 0.0172 |
| RRIRERPPRLPRPRPRPLCDPRP | 1.81 |
| RRIRRRPPRLPRPRPRPQVCPRP | -0.175 |
| RRIRVRPPRLPRPRPRPYYVPRP | -1.97 |
| RRIRQRPPRLPRPRPRPVFKPRP | -0.0447 |
| RRIRYRPPRLPRPRPRPGCIPRP | -0.819 |
| RRIRWRPPRLPRPRPRPLREPRP | 0.125 |
| RRIRTRPPRLPRPRPRPQPIPRP | 0.0337 |
| RRIRERPPRLPRPRPRPNPEPRP | -0.0358 |
| RRIRARPPRLPRPRPRPWFHPRP | -0.301 |
| RRIRVRPPRLPRPRPRPVYNPRP | -0.738 |
| RRIRHRPPRLPRPRPRPCEHPRP | -0.00546 |
| RRIRYRPPRLPRPRPRPFHSPRP | -0.0599 |

| Sequence | shrunken log2 fold change |
| --- | --- |
| RRIRFRPPRLPRPRPRPNKLPRP | -0.615 |
| RRIRTRPPRLPRPRPRPHNHPRP | -0.802 |
| RRIRERPPRLPRPRPRPMYRPRP | -0.273 |
| RRIRPRPPRLPRPRPRPNGSPRP | 0.0884 |
| RRIRVRPPRLPRPRPRPDQIPRP | -0.0895 |
| RRIRKRPPRLPRPRPRPEYRPRP | 0.012 |
| RRIRVRPPRLPRPRPRPHDKPRP | -0.123 |
| RRIRQRPPRLPRPRPRPNEQPRP | 0.0394 |
| RRIRRRPPRLPRPRPRPPWLPRP | 0.634 |
| RRIRHRPPRLPRPRPRPIEHPRP | -0.394 |
| RRIRVRPPRLPRPRPRPHRCPRP | 0.0572 |
| RRIRFRPPRLPRPRPRPYPQPRP | -0.356 |
| RRIRQRPPRLPRPRPRPSGNPRP | -0.323 |
| RRIRMRPPRLPRPRPRPVMVPRP | 0.0724 |
| RRIRPRPPRLPRPRPRPTEDPRP | -0.18 |
| RRIRHRPPRLPRPRPRPKWGPRP | 0.177 |
| RRIRPRPPRLPRPRPRPGALPRP | 0.243 |
| RRIRNRPPRLPRPRPRPYRFPRP | -0.00669 |
| RRIRQRPPRLPRPRPRPIPAPRP | 0.214 |
| RRIRYRPPRLPRPRPRPWHNPRP | -0.626 |
| RRIRFRPPRLPRPRPRPSLKPRP | -0.196 |
| RRIRHRPPRLPRPRPRPSLQPRP | -0.0974 |
| RRIRIRPPRLPRPRPRPCSAPRP | -0.392 |
| RRIRTRPPRLPRPRPRPVIMPRP | -0.181 |
| RRIRQRPPRLPRPRPRPLSLPRP | -0.0321 |

| Sequence | shrunken log2 fold change |
| --- | --- |
| RRIRDRPPRLPRPRPRPCYRPRP | -0.417 |
| RRIRLRPPRLPRPRPRPGMIPRP | -0.419 |
| RRIRYRPPRLPRPRPRPDIQPRP | -0.349 |
| RRIRARPPRLPRPRPRPLGRPRP | 0.321 |
| RRIRTRPPRLPRPRPRPVHAPRP | -0.00294 |
| RRIRRRPPRLPRPRPRPPSDPRP | 0.79 |
| RRIRGRPPRLPRPRPRPGDIPRP | 0.143 |
| RRIRCRPPRLPRPRPRPCWLPRP | -0.0409 |
| RRIRQRPPRLPRPRPRPEKMPRP | -0.145 |
| RRIRARPPRLPRPRPRPLQLPRP | 0.179 |
| RRIRARPPRLPRPRPRPYSNPRP | -0.781 |
| RRIRWRPPRLPRPRPRPAGEPRP | 0.432 |
| RRIRCRPPRLPRPRPRPAPTPRP | 0.591 |
| RRIRDRPPRLPRPRPRPTRYPRP | 0.317 |
| RRIRQRPPRLPRPRPRPEVAPRP | 0.00859 |
| RRIRWRPPRLPRPRPRPRYNPRP | -0.396 |
| RRIRTRPPRLPRPRPRPASKPRP | -0.05 |
| RRIRSRPPRLPRPRPRPPCAPRP | 0.497 |
| RRIRNRPPRLPRPRPRPGYTPRP | -0.501 |
| RRIRTRPPRLPRPRPRPHRCPRP | -0.0268 |
| RRIRHRPPRLPRPRPRPWQVPRP | -0.0402 |
| RRIRKRPPRLPRPRPRPPQYPRP | 0.277 |
| RRIRPRPPRLPRPRPRPFAIPRP | -0.232 |
| RRIRVRPPRLPRPRPRPYLTPRP | -0.575 |
| RRIRSRPPRLPRPRPRPFVKPRP | -0.222 |

| Sequence | shrunken log2 fold change |
| --- | --- |
| RRIRHRPPRLPRPRPRPRMDPRP | 0.0986 |
| RRIRGRPPRLPRPRPRPRQYPRP | -0.0954 |
| RRIRKRPPRLPRPRPRPVWNPRP | -0.106 |
| RRIRLRPPRLPRPRPRPNTFPRP | -0.348 |
| RRIRRRPPRLPRPRPRPNQCPRP | -0.0957 |
| RRIRNRPPRLPRPRPRPLREPRP | 0.128 |
| RRIRDRPPRLPRPRPRPRGQPRP | 0.141 |
| RRIRKRPPRLPRPRPRPSIQPRP | -0.149 |
| RRIRGRPPRLPRPRPRPIFPPRP | 0.553 |
| RRIRNRPPRLPRPRPRPVYSPRP | -0.252 |
| RRIRPRPPRLPRPRPRPKTRPRP | 0.382 |
| RRIRRRPPRLPRPRPRPQGVPRP | -0.159 |
| RRIRKRPPRLPRPRPRPSCRPRP | 0.0107 |
| RRIRKRPPRLPRPRPRPEQQPRP | 1.43 |
| RRIRVRPPRLPRPRPRPTEIPRP | 0.221 |
| RRIRARPPRLPRPRPRPYERPRP | 0.0697 |
| RRIRIRPPRLPRPRPRPGDCPRP | -0.185 |
| RRIRDRPPRLPRPRPRPHPNPRP | -0.662 |
| RRIRGRPPRLPRPRPRPNVAPRP | 1.15 |
| RRIRARPPRLPRPRPRPLRLPRP | 0.809 |
| RRIRWRPPRLPRPRPRPTQHPRP | 0.333 |
| RRIRPRPPRLPRPRPRPPADPRP | 0.593 |
| RRIRPRPPRLPRPRPRPLNWPRP | 0.0566 |
| RRIRDRPPRLPRPRPRPYDKPRP | -0.149 |
| RRIRARPPRLPRPRPRPGIFPRP | 0.468 |

| Sequence | shrunken log2 fold change |
| --- | --- |
| RRIRPRPPRLPRPRPRPFQEPRP | -0.185 |
| RRIRIRPPRLPRPRPRPNKSPRP | -0.919 |
| RRIRFRPPRLPRPRPRPKDLPRP | 0.0796 |
| RRIRWRPPRLPRPRPRPDSGPRP | -0.0735 |
| RRIRWRPPRLPRPRPRPDAQPRP | 1.48 |
| RRIRGRPPRLPRPRPRPHCAPRP | 0.606 |
| RRIRYRPPRLPRPRPRPYVVPRP | -0.24 |
| RRIRNRPPRLPRPRPRPSCPPRP | -0.4 |
| RRIRWRPPRLPRPRPRPMLPPRP | -0.0127 |
| RRIRMRPPRLPRPRPRPYISPRP | -0.353 |
| RRIRTRPPRLPRPRPRPKVSPRP | -0.0491 |
| RRIRSRPPRLPRPRPRPKTYPRP | -0.543 |
| RRIRTRPPRLPRPRPRPFPTPRP | 0.105 |
| RRIRVRPPRLPRPRPRPMCGPRP | 0.0281 |
| RRIRFRPPRLPRPRPRPGLGPRP | 0.603 |
| RRIRQRPPRLPRPRPRPSGWPRP | -0.112 |
| RRIRFRPPRLPRPRPRPVESPRP | -0.0712 |
| RRIRVRPPRLPRPRPRPKETPRP | 0.0161 |
| RRIRWRPPRLPRPRPRPNLFPRP | 0.144 |
| RRIRDRPPRLPRPRPRPAIVPRP | 0.41 |
| RRIRYRPPRLPRPRPRPRNKPRP | -0.661 |
| RRIRARPPRLPRPRPRPDRAPRP | 0.642 |
| RRIRWRPPRLPRPRPRPLFDPRP | 0.0264 |
| RRIRSRPPRLPRPRPRPCNWPRP | -0.128 |
| RRIRTRPPRLPRPRPRPDDNPRP | -0.195 |

| Sequence | shrunken log2 fold change |
| --- | --- |
| RRIRLRPPRLPRPRPRPAPMPRP | 0.118 |
| RRIRGRPPRLPRPRPRPRMAPRP | 1.06 |
| RRIRLRPPRLPRPRPRPMGCPRP | 0.031 |
| RRIRARPPRLPRPRPRPCVEPRP | 0.317 |
| RRIRARPPRLPRPRPRPLEPPRP | 0.451 |
| RRIRVRPPRLPRPRPRPDSWPRP | -0.0688 |
| RRIRARPPRLPRPRPRPQRMPRP | 0.0748 |
| RRIRSRPPRLPRPRPRPDISPRP | -0.0675 |
| RRIRWRPPRLPRPRPRPKECPRP | 0.236 |
| RRIRPRPPRLPRPRPRPCLSPRP | -0.143 |
| RRIRGRPPRLPRPRPRPKGNPRP | 0.598 |
| RRIRLRPPRLPRPRPRPYNKPRP | 1.41 |
| RRIRNRPPRLPRPRPRPVLFPRP | -0.326 |
| RRIRRRPPRLPRPRPRPKENPRP | 0.325 |
| RRIRNRPPRLPRPRPRPSPTPRP | 0.156 |
| RRIRSRPPRLPRPRPRPHACPRP | -0.0756 |
| RRIRYRPPRLPRPRPRPNGVPRP | 0.0238 |
| RRIRWRPPRLPRPRPRPRIRPRP | 0.0716 |
| RRIRFRPPRLPRPRPRPKNGPRP | -0.0366 |
| RRIRFRPPRLPRPRPRPMCIPRP | -0.075 |
| RRIRMRPPRLPRPRPRPVFAPRP | 0.378 |
| RRIRPRPPRLPRPRPRPGSYPRP | 0.0254 |
| RRIRSRPPRLPRPRPRPDLSPRP | 0.101 |
| RRIRNRPPRLPRPRPRPDMHPRP | -0.0698 |
| RRIRERPPRLPRPRPRPLEMPRP | -0.216 |
